According to patent publication US20190225698A1 (JIANGSU HENGRUI MEDICINE, published 2019):

Columns and labels:
Experiment in all cases: flow cytometry on transfected HEK293 cells
[1] = target: T1, murine CD137 expressed on transfected HEK293 cells (murine, UniProt P20334 24-256)
T1 construct: whole, on cells
T1 sequence (looked up): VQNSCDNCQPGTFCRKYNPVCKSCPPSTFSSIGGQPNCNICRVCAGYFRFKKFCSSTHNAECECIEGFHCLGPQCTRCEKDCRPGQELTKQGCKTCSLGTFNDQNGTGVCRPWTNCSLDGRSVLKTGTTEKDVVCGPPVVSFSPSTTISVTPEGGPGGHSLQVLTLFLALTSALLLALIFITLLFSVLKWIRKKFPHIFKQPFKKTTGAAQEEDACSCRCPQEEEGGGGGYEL

[2] = target: T2, murine OX40 expressed on transfected HEK293 cells (murine, UniProt P47741 20-272)
T2 construct: whole, on cells
T2 sequence (looked up): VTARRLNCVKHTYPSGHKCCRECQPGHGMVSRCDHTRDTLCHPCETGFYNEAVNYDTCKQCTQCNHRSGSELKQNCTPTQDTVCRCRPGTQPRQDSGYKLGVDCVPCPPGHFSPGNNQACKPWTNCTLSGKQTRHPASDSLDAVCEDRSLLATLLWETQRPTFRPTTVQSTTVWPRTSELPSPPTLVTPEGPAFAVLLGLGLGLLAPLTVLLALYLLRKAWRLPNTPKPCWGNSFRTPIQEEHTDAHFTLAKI

[3] = target: T3, murine TNFRSF1A expressed on transfected HEK293 cells (murine, UniProt P25118 30-454)
T3 construct: whole, on cells
T3 sequence (looked up): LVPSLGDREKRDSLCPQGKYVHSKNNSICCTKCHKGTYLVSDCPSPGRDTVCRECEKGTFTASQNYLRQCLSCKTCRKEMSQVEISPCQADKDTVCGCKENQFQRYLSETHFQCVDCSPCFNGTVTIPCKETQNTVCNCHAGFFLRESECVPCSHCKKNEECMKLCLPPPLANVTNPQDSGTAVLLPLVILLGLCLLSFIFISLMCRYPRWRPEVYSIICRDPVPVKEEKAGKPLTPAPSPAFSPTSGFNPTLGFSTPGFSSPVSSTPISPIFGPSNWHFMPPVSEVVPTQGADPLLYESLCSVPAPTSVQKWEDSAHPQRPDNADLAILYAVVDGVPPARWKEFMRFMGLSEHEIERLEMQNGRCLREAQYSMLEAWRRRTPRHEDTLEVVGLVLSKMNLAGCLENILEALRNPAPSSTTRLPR

[4] = target: T4, human CD40 expressed on transfected HEK293 cells (human, UniProt P25942 21-277)
T4 construct: whole, on cells

[5] = target: T5, murine FAS expressed on transfected HEK293 cells (murine, UniProt P25446 22-327)
T5 construct: whole, on cells
T5 sequence (looked up): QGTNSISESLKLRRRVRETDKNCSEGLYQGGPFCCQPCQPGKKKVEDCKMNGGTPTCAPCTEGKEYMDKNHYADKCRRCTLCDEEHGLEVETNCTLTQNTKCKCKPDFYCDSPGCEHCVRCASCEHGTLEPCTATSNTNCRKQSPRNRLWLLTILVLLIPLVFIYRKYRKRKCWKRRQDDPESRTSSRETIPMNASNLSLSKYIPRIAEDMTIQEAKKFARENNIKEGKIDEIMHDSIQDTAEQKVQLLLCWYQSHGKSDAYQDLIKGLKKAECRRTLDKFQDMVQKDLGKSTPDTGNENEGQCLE

[6] = target: T6, human TNFRSF1A expressed on transfected HEK293 cells (human, UniProt P19438 30-455)
T6 construct: whole, on cells
T6 sequence (looked up): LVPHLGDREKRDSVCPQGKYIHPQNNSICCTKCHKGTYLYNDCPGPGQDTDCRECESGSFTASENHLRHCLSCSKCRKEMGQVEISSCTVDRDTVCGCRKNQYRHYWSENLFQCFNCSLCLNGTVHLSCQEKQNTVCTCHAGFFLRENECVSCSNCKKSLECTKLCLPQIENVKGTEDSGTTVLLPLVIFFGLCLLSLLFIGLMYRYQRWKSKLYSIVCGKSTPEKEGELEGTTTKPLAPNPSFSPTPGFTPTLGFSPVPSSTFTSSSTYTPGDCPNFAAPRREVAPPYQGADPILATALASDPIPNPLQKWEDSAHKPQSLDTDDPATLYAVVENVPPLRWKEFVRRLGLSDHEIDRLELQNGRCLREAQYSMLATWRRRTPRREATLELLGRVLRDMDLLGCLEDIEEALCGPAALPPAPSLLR

[7] = target: T7, murine CD40 expressed on transfected HEK293 cells (murine, UniProt P27512 20-289)
T7 construct: whole, on cells
T7 sequence (looked up): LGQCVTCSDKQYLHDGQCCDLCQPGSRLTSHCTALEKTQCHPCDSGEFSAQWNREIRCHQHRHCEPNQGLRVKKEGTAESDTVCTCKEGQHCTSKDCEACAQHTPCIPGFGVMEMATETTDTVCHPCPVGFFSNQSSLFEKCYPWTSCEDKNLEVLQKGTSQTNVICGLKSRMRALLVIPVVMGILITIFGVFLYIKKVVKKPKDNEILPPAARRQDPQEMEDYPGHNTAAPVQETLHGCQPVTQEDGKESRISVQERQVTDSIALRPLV

[8] = target: T8, human OX40 expressed on transfected HEK293 cells (human, UniProt P43489 29-277)
T8 construct: whole, on cells
T8 sequence (looked up): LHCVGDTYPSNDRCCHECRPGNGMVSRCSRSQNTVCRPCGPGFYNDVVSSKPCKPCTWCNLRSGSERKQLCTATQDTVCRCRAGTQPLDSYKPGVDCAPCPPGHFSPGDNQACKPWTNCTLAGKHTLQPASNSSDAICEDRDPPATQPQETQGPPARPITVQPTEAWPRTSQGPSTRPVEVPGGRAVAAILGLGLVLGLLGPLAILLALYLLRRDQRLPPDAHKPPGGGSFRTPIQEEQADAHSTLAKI

[9] = target: T9, human CD137 expressed on transfected HEK293 cells (human, UniProt Q07011 24-255)
T9 construct: whole, on cells

Measured: binding result

T4 sequence (P25942 21-277): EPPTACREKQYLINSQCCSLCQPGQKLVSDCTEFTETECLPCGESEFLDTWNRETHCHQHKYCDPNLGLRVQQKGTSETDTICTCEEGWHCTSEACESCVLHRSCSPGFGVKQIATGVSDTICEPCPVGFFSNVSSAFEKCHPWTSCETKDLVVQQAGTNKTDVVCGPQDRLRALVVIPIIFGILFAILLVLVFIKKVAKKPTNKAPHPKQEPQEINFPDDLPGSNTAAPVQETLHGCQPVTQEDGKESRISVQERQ
T9 sequence (Q07011 24-255): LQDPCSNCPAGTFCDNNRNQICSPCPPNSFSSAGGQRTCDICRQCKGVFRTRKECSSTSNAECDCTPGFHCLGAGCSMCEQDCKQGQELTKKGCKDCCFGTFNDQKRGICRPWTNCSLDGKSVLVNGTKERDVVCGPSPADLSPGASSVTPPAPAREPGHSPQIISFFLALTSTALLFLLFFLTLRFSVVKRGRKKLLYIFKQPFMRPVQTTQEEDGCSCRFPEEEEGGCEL

B1: anti-CD27 antibody mAb076 (IgG1 form) (antibody, V domains shown)
VH: EVQLVESGGGLVQPGGSLRLSCAASGFTFSDYGIHWVRQAPGKGLEWIGWINPNRGSTNYAQKFQGRVTISRDNSKNTLYLQLNSLRAEDTAVYYCARDYGYTWYFDVWGQGTLVTVSS
VL: DIQLTQSPSSLSASVGDRVTITCRASQDISSVLAWYQQKPGKAPKLLIYAASSLQSGVPSRFSGSGSGTDFTLTISSLQPEDFATYYCQQRDAWPLTFGQGTKVEIK
notes: Human antibody from phage display
no binding (tested: 100 nM): all assays above

B2: anti-CD27 antibody mAb077 (IgG1 form) (antibody, V domains shown)
VH: EVQLVESGGGLVQPGGSLRLSCAASGFTFSGYGIHWVRQAPGKGLEWIGWINPNRGSTKYAQKFQGRVTISRDNSKNTLYLQLNSLRAEDTAVYYCARDPGYTWYFDVWGQGTLVTVSS
VL: DIQLTQSPSSLSASVGDRVTITCRASQDISSDLAWYQQKPGKAPKLLIYAASTLQSGVPSRFSGSGSGTDFTLTISSLQPEDFATYYCQQRDAWPPTFGQGTKVEIK
notes: as for B1
no binding (tested: 100 nM): all assays above
